# B1: Murine 3F12E7 (antibody, V domains shown)
# VH: GELQESGPELVKPGASVKISCKASGYSFTGYYMNWVKHSPEKSLEWIGEINPSTGGTSYNQKFKAKATLTVDKSSTTAYMQLKGLTSEDSAVYYCASGGYYEGFDYWGQGTTVTVSS
# VL: DIELTQSPASLSASVGETVTGNIYSYLAWYQQKQGKSPQLLVYDAKTLADGVPSRFTGSGSGTQFSLKINSLQPEDFGSYYCQHFWNTPRTFGGGTKLEIK
# B2: 85L117H (antibody, V domains shown)
# VH: QVQLVQSGAELKRPGSSVKVSCRASGDTFKNYAITWVRQAPGQGLEWVGGIDPLVGVPNYTHRFQGRVTITADEPTSTTYMEFRDLTSDDTAVYYCARGVRDQHWSYFDSWGQGTLVTVSS
# VL: QSVLTQPPSASGTPGQTVNISCSGATSNIGGGSVNWYQQLPGAAPRLLIHSDNERASGVPDRFSGSKSGTSASLAISGLQSEDEADYFCASWDDSLDGHVVFGGGTKVTVL
# B3: 62K98H (antibody, V domains shown)
# VH: QITLKESGPTLVKPTQTLTLTCTFSGFSLSTSGVGVGWIRQPPGEALEWLAVIHWNEANYYSPYLRSRLTITKDTSKNQMVLTVTNMDPVDTATYYCARGANSDSSGRLDAFDIWGQGTMVTVSS
# VL: DVVMTQSPLSLPVTLGQPASISCRSSQSLIYSDGNTRLYWFHQRPGQSPRRLIYGVSNRDSGVPDRFSGSGSGTDFTLKISRVEAEDVGVYYCMQSTHWPHTFGQGTKLEIK
# Biological target: rFGF2 (human, UniProt P09038)
# Sequence (P09038 143-288): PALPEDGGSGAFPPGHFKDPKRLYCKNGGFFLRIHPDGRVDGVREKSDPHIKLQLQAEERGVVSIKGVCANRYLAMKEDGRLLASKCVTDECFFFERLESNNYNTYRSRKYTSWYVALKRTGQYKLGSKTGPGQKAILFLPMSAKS
# Assay: SPR
row,Kd [nM],Binder
1,0.413,B1
2,17,B2
3,9.1,B3

# — US20260297170 (published 2026)
